B3: Atg13 (natural protein, S. cerevisiae, UniProt Q06628 1-738, looked up)
chain: MVAEEDIEKQVLQLIDSFFLKTTLLICSTESSRYQSSTENIFLFDDTWFEDHSELVSELPEIISKWSHYDGRKELPPLVVETYLDLRQLNSSHLVRLKDHEGHLWNVCKGTKKQEIVMERWLIELDNSSPTFKSYSEDETDVNELSKQLVLLFRYLLTLIQLLPTTELYQLLIKSYNGPQNEGSSNPITSTGPLVSIRTCVLDGSKPILSKGRIGLSKPIINTYSNALNESNLPAHLDQKKITPVWTKFGLLRVSVSYRRDWKFEINNTNDELFSARHASVSHNSQGPQNQPEQEGQSDQDIGKRQPQFQQQQQPQQQQQQQQQQQRQHQVQTQQQRQIPDRRSLSLSPCTRANSFEPQSWQKKVYPISRPVQPFKVGSIGSQSASRNPSNSSFFNQPPVHRPSMSSNYGPQMNIEGTSVGSTSKYSSSFGNIRRHSSVKTTENAEKVSKAVKSPLQPQESQEDLMDFVKLLEEKPDLTIKKTSGNNPPNINISDSLIRYQNLKPSNDLLSEDLSVSLSMDPNHTYHRGRSDSHSPLPSISPSMHYGSLNSRMSQGANASHLIARGGGNSSTSALNSRRNSLDKSSNKQGMSGLPPIFGGESTSYHHDNKIQKYNQLGVEEDDDDENDRLLNQMGNSATKFKSSISPRSIDSISSSFIKSRIPIRQPYHYSQPTTAPFQAQAKFHKPANKLIDNGNRSNSNNNNHNGNDAVGVMHNDEDDQDDDLVFFMSDMNLSKEG
notes: Atg13, S. cerevisiae BY4741, open reading frame from genomic DNA; source: E. coli Rosetta, purified (Ni-NTA, anion exchange)

Legend:
[1] = target: T1, Atg9^core (Atg9^281–779), reconstituted in proteoliposomes (S. cerevisiae, UniProt Q12142 281-779); test: co-floatation with proteoliposomes; Atg9 variant held in proteoliposomes (synthetic lipids without PI), partner in solution at 1:1, Nycodenz step gradient, 650,000g 2 h at 4 °C, 25 mM HEPES pH 7.0, 100 mM NaCl; top fraction read by SDS–PAGE or α-myc immunoblot; settings: both partners purified
T1 construct: Atg9, S. cerevisiae BY4741, conserved core region, residues 281–779; modified pET28a(+) vector; about 50% of the protein in the proteoliposomes has its cytoplasmic domains outside; liposomes of cholesterol, POPE, POPC, POPS, without PI; also called Atg9–PLs; Atg9-PL; source: E. coli Rosetta, solubilised in LDAO, purified (Ni-NTA, SEC), reconstituted in liposomes; not shown: His tag, C-terminal, …
T1 sequence (looked up): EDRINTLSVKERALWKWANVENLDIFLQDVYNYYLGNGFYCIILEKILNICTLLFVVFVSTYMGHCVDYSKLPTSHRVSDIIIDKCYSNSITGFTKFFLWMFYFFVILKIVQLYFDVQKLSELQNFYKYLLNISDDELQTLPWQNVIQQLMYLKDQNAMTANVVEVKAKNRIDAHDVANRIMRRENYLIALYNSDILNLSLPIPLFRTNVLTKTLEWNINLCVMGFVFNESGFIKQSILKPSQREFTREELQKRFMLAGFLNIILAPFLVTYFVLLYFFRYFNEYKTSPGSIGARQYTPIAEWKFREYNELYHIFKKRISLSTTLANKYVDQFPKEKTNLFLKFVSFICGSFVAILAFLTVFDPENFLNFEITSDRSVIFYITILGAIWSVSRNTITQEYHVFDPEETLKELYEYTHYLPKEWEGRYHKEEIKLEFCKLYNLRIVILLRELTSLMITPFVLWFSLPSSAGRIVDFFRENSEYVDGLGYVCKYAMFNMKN

Atg13 = target: B3; test: SEC; complexes assembled from purified subunits or subcomplexes, 30 min at room temperature, then gel filtration on Superose 6; settings: both partners purified
[2] = target: the molecule itself; test: dynamic light scattering; Stokes radii (RH) of the purified proteins and complexes in solution
Atg1 [3] = target: T2, Atg1 (S. cerevisiae, UniProt P53104 1-897, phosphothreonine at 226 (T226)); test: SEC; ATP added to fully assembled Atg1^PC (Atg13, Atg29 and Atg1 become phosphorylated by Atg1); SEC and SDS–PAGE of the fractions; settings: both partners purified
T2 construct: Atg1, S. cerevisiae BY4741, open reading frame from genomic DNA; also called full-length Atg1; Atg1–kinase; source: High Five (BTI-TN-5B1–4) insect cells, purified (Ni-NTA, SEC)
T2 sequence (looked up): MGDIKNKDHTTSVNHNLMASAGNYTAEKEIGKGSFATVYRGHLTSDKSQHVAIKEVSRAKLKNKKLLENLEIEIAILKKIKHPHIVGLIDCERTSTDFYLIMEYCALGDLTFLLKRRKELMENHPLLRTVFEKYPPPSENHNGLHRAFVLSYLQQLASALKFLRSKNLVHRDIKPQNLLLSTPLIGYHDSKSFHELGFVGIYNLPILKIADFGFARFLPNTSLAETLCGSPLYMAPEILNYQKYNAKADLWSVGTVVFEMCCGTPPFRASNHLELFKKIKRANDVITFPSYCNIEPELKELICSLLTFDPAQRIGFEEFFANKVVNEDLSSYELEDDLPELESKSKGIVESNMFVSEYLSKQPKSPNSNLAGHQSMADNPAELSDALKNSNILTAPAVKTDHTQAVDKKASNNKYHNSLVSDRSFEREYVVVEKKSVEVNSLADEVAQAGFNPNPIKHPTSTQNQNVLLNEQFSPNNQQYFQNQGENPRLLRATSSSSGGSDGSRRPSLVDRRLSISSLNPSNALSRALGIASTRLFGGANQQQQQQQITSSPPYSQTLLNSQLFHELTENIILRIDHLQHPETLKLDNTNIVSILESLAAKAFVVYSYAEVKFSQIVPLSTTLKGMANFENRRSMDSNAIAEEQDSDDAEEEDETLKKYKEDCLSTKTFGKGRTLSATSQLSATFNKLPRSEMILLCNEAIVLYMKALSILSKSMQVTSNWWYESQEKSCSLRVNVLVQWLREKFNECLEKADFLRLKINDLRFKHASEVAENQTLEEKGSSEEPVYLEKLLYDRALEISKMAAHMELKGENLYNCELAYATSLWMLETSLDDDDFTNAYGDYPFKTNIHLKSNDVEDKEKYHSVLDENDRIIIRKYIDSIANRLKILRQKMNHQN

Atg1 [4] = target: T2, Atg1; test: SEC; complexes assembled from purified subunits or subcomplexes, 30 min at room temperature, then gel filtration on Superose 6; settings: both partners purified

B1: Atg17 (natural protein, S. cerevisiae, UniProt Q06410 1-417, looked up)
chain: MNEADVTKFVNNARKTLTDAQLLCSSANLRIVDIKKKLSSWQLSISKLNFLIVGLRQQGKFLYTILKEGIGTKLIQKQWNQAVLVVLVDEMKYWQYEITSKVQRLDGIVNELSISEKDDTDPSKLGDYISRDNVNLLNDKLKEVPVIERQIENIKLQYENMVRKVNKELIDTKLTDVTQKFQSKFGIDNLMETNVAEQFSRELTDLEKDLAEIMNSLTQHFDKTLLLQDKKIDNDEREELFKVVQGDDKELYNIFKTLHEVIDDVDKTILNLGQFLQAKIKEKTELHSEVSEIINDFNRNLEYLLIFKDISNLIDSFKNSCTQDIQTTKELCEFYDNFEESYGNLVLEAKRRKDVANRMKTILKDCEKQLQNLDAQDQEERQNFIAENGTYLPETIWPGKIDDFSSLYTLNYNVKNP
notes: Atg17, S. cerevisiae BY4741, open reading frame from genomic DNA; expressed from pST39; also called full-length Atg17; Atg17-dimer; source: E. coli Rosetta, purified (Ni-NTA, SEC); not shown: His6, N-terminal, cleaved
For B1, the binding result [1] was “binds”, the binding result (Atg13) was “binds” and the “stoichiometry N” value [2] was 2.

B2: Atg13(P), Atg13 phosphorylated by Atg1 in vitro (natural protein, S. cerevisiae, UniProt Q06628 1-738, looked up)
chain: MVAEEDIEKQVLQLIDSFFLKTTLLICSTESSRYQSSTENIFLFDDTWFEDHSELVSELPEIISKWSHYDGRKELPPLVVETYLDLRQLNSSHLVRLKDHEGHLWNVCKGTKKQEIVMERWLIELDNSSPTFKSYSEDETDVNELSKQLVLLFRYLLTLIQLLPTTELYQLLIKSYNGPQNEGSSNPITSTGPLVSIRTCVLDGSKPILSKGRIGLSKPIINTYSNALNESNLPAHLDQKKITPVWTKFGLLRVSVSYRRDWKFEINNTNDELFSARHASVSHNSQGPQNQPEQEGQSDQDIGKRQPQFQQQQQPQQQQQQQQQQQRQHQVQTQQQRQIPDRRSLSLSPCTRANSFEPQSWQKKVYPISRPVQPFKVGSIGSQSASRNPSNSSFFNQPPVHRPSMSSNYGPQMNIEGTSVGSTSKYSSSFGNIRRHSSVKTTENAEKVSKAVKSPLQPQESQEDLMDFVKLLEEKPDLTIKKTSGNNPPNINISDSLIRYQNLKPSNDLLSEDLSVSLSMDPNHTYHRGRSDSHSPLPSISPSMHYGSLNSRMSQGANASHLIARGGGNSSTSALNSRRNSLDKSSNKQGMSGLPPIFGGESTSYHHDNKIQKYNQLGVEEDDDDENDRLLNQMGNSATKFKSSISPRSIDSISSSFIKSRIPIRQPYHYSQPTTAPFQAQAKFHKPANKLIDNGNRSNSNNNNHNGNDAVGVMHNDEDDQDDDLVFFMSDMNLSKEG
modifications: phosphoserine at 428, 429 and 496 and at several other positions (Supplementary Table 1)
notes: Atg13, S. cerevisiae BY4741; also called phosphorylated Atg13; source: E. coli Rosetta, purified; phosphorylated by adding ATP to fully assembled Atg1^PC
B2: binds (Atg1 [3]).

B3: binds (Atg1 [4]).

From PMC4729957, “The Atg1–kinase complex tethers Atg9-vesicles to initiate autophagy” (Nature Communications, 2016)
